T1: FLAG-tagged cynomolgous APRIL (cynomolgus monkey, UniProt A0ACM8R0G4 110-250 (rhesus entry))
T1 construct: FLAG-tagged, expressed with TPA signal peptide; also called cyAPRIL
T1 sequence: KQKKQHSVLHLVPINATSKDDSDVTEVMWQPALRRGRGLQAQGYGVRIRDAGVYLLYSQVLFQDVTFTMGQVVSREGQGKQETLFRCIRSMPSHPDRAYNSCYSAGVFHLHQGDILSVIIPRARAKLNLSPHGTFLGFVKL


Assays:
FLAG-tagged human BAFF [1] = target: T2, FLAG-tagged human BAFF (human, UniProt Q9Y275 134-285, limits assumed); assay: BIACORE SPR
T2 construct: used in BIACORE (Ex. 9) and KINEXA (Ex. 11); also called huBAFF
Protocol: (§1) For human BAFF, cynomolgus monkey APRIL, and mouse APRIL measurements, mouse monoclonal antibody (IgG1) anti-FLAG M2 (Sigma Aldrich, Cat. No. F1804) was immobilized on CM3 sensor chips (GE Healthcare, Cat. No. BR-1005-41) according to the manufacturer's protocol. Antibody was diluted to 30 μg/ml in immobilization buffer (10 mM pH 5±0.20; GE Healthcare; GE Healthcare, Catalog No. BR-1003-51). […] Unreacted sites were quenched with 35 μl of 1M ethanolamine-HCl, pH 8.5 (GE Healthcare, GE Healthcare, Cat. No. BR-1000-50). This procedure typically yielded 3,000-4,000 response units (RU) of coupled antibody.
(§2) The fusion polypeptides were diluted in HBS-EP buffer and flowed over ligand-coated sensor chips. The variant BCMA-Ig and surrogate control fusion proteins were injected at three concentrations (1.5 nM, 15 nM, and 150 nM at 30 μl/min for 2 minutes per association phase) in a single binding cycle, followed by a 20 minute incubation with HBS-EP buffer containing no protein at the same flow rate. A similar protocol was followed for Z-TACI-Ig, except that the injections were at 4.5 nM, 45 nM, and 450 nM.
(§3) Sequence optimization involved generating revertants from the variant BCMA ECD-Ig molecules using standard site-directed mutagenesis methods such as by SOEing as described herein above. Single as well as multiple revertants from twelve different variant-BCMA-pIg18 were generated, cloned in the pcDNA3.1 vector (Life Technologies, as described in Example 6), expressed and purified as described in Examples 6-8. The resulting proteins were assayed for their binding characteristics using Surface Plasmon Resonance as described in Example 9.

[2] = target: T1, FLAG-tagged cynomolgous APRIL; assay: BIACORE SPR
Protocol: as §1, §2, §3

FLAG-tagged human BAFF [3] = target: T2, FLAG-tagged human BAFF; assay: KinExA
Protocol: Equilibrium measurements were performed using FLAG-tagged, recombinant huBAFF and huAPRIL ligands. Fixed ligand concentrations of human BAFF or human APRIL were incubated with serial dilutions of the variant BCMA ECD-Ig fusion polypeptides, and free ligand was detected in a KINEXA 3200 Instrument. variant BCMA ECD-Ig fusion polypeptides were first diluted in equilibration buffer (1×PBS, pH 7.4, 1 mg/ml BSA) to a range of concentrations from 10 nM to 100 fM. The linear portion of the dilution series was typically 2-fold. Ligands were diluted in equilibration buffer to fixed concentrations ranging from 5 to 20 pM and then incubated with the variant BCMA-Ig dilutions in total reaction volumes ranging from 4.5 to 15 ml. Samples were incubated at room temperature for 48-72 hours to reach equilibrium. For each data point, a fresh column of 850 μl of bead slurry coated with Variant BAv-238475-Ig was introduced into the KINEXA flow cell. Equilibrated samples ranging from 1 to 5 ml reaction volume were injected at a flow rate of 0.25 ml/min. […] The DyLight 649 fluorescent signal was detected using the red filter set (620/30 nanometer excitation filter, 670/40 nanometer emission filter, 645 nanometer dichroic filter) on the KinExA instrument and converted to a voltage signal that was directly proportional to the concentration of free ligand in the equilibrated sample.
The various fusion proteins described above were expressed and purified as described previously (Examples 2 and 3 for the CET1019AS based plasmids and Examples 7 and 8 for the pcDNA based plasmids). […] The BAv9-1-Ig Fc proteins typically exist in solution as a dimeric fusion protein. The purified fusion proteins were assayed for binding activity using BIACORE (Example 9) and KINEXA (Example 11) assays.

| Binder | fold improvement over control (FLAG-tagged human BAFF [1]) [fold] | fold improvement over control [2] [fold] | Kd (FLAG-tagged human BAFF [3]) [pM] |
| --- | --- | --- | --- |
| Variant 50239040-Ig (Fc fusion, human, domain: Fc; also called Parent 10) ARQCSPSEYYDHLIRSCVPCQLRCSSNTPPVTCQRYCDAGVTNSVKGTNAERKSSVECPPSPAPPVAGPSVFLFPPKPKDTLMISRTPEVTCVVVDVSHEDPEVQFNWYVDGVEVHNAKTKPREEQFNSTFRVVSVLTVVHQDWLNGKEYKCKVSNKGLPAPIEKTISKTKGQPREPQVYTLPPSREEMTKNQVSLTCLVKGFYPSDISVEWESNGQPENNYKTTPPMLDSDGSFFLYSKLTVDKSRWQQGNVFSCSVMHEALHNHYTQKSLSLSPGK | 9.3 | 0.3 |  |
| Variant 50239698-Ig (Fc fusion, human, domain: Fc; also called Parent 5) ARQCSQNEYYDRLLRSCVPCHVRCSSNNPPVTCQRYCNAGVTNSVKGTNAERKSSVECPPSPAPPVAGPSVFLFPPKPKDTLMISRTPEVTCVVVDVSHEDPEVQFNWYVDGVEVHNAKTKPREEQFNSTFRVVSVLTVVHQDWLNGKEYKCKVSNKGLPAPIEKTISKTKGQPREPQVYTLPPSREEMTKNQVSLTCLVKGFYPSDISVEWESNGQPENNYKTTPPMLDSDGSFFLYSKLTVDKSRWQQGNVFSCSVMHEALHNHYTQKSLSLSPGK | 5.5 | 0.9 |  |
| Variant 50240054-Ig (Fc fusion, human, domain: Fc; also called Parent 2) AQQCSPNEYFDRLIRACIPCQLRCSSNTPPVTCQRYCNTGVTNSVKGTNAERKSSVECPPSPAPPVAGPSVFLFPPKPKDTLMISRTPEVTCVVVDVSHEDPEVQFNWYVDGVEVHNAKTKPREEQFNSTFRVVSVLTVVHQDWLNGKEYKCKVSNKGLPAPIEKTISKTKGQPREPQVYTLPPSREEMTKNQVSLTCLVKGFYPSDISVEWESNGQPENNYKTTPPMLDSDGSFFLYSKLTVDKSRWQQGNVFSCSVMHEALHNHYTQKSLSLSPGK | 6.4 | 0.7 |  |
| Variant 50239978-Ig (Fc fusion, human, domain: Fc; also called Parent 12) ARQCSPNEYYDSLIRACVPCQLRCSSNNPPVTCQRYCNAGVTNSVKGTNAERKSSVECPPSPAPPVAGPSVFLFPPKPKDTLMISRTPEVTCVVVDVSHEDPEVQFNWYVDGVEVHNAKTKPREEQFNSTFRVVSVLTVVHQDWLNGKEYKCKVSNKGLPAPIEKTISKTKGQPREPQVYTLPPSREEMTKNQVSLTCLVKGFYPSDISVEWESNGQPENNYKTTPPMLDSDGSFFLYSKLTVDKSRWQQGNVFSCSVMHEALHNHYTQKSLSLSPGK | 10.1 | 0.6 |  |
| AGQCSQNEYFDHLIRACIPCQLRCSSNTPPLTCQRYCNAGVTNSVGGGGS (Fc fusion, human, domain: Fc; not shown: PIg23: PIg22 Fc with valine at 178 mutated to methionine) [BAv9-1-5L-pIg23] |  |  | 0.291 |
